Reference: the supplement of paper PMC10567573
± gives the standard deviation.

Test: protein stability index of a GFP-peptide fusion (GPS, HEK-293T) (PSI 1-6); higher = more stable
[1] = treatment: DMSO, c terminus: a fixed tail appended
[2] = treatment: MLN4924 1 uM, 8 h, c terminus: a fixed tail appended
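Further: 24-mer peptide tiles fused after GFP, lentivirally expressed, FACS-sorted into six equal bins by GFP/DsRed ratio, decoded by Illumina sequencing, PSI is the read-weighted mean bin number.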

Sequence	protein stability index [1]	protein stability index [2]	protein stability index (treatment: DMSO, c terminus: native)	protein stability index (treatment: MLN4924 1 uM, 8 h, c terminus: native)
VIDAEPFIRCSLQCRDLVDEAKKF [KLHL12]	2.58 ± 0.46	2.35 ± 0.065		
VILHLKEDQTEYLEERRVKEVVKK [HSP90AB1]	2.57 ± 0.25	2.77 ± 0.36		
VKTGEDGSNLDDAKGLAESLELPK [FANCE]	5.44 ± 0.18	5.49 ± 0.14		
VKYIVERTMLDFPQHVSSDKEVRA [NLN]	2.82 ± 0.36	2.69 ± 0.25		
VLCLIVLPLALYTATFAVHFMVLS [POMT2]	3.17 ± 0.19	3.34 ± 0.43		
VLFAVGGWCSGDAISSVERYDPQT [KLHL20]	2.12 ± 0.21	2.29 ± 0.15		
VLHIVASLIILHLSGATKKGTEKQ [NETO1]	2.78 ± 0.57	2.9 ± 0.65		
VLLGEPLVVMAPSPSESSETVLAL [DENND6A]	2.82 ± 0.36	2.52 ± 0.34		
VMSGKMSVSKAQSIYGIPHSTLEY [LCOR]	2.38 ± 0.19	2.23 ± 0.076		
VNLFLHFTVNPKPRVEYIDRPRCC [BTBD1]	3.43 ± 0.18	3.12 ± 0.28		
VNQPNNNGFTPLHFAAASTHGALC [ANKRD44]	2.99 ± 0.3	3.06 ± 0.33		
VQERLTKQIAVAITEALRPAGVGV [GCH1]	2.23 ± 0.2	2.17 ± 0.13		
VQLIDDFKISGMNGIHVCMVFEVL [SRPK2]	2.73 ± 0.62	2.71 ± 0.32		
VQRLTSRAARDYKIQNHGHRVLQR [FCHSD1]	3.33 ± 0.08	3.44 ± 0.1		
VQRTQSVPVRRPARRRQSAGPWPR [RASAL3]	4.55 ± 0.26	4.48 ± 0.096		
VRDGFSATFEKILESELLRGTQYS [PSD2]	2.29 ± 0.35	2.31 ± 0.12		
VRTLEGVFQHHQYLSPLERKRLAR [VENTX]	3.23 ± 0.23	3.54 ± 0.47		
VRTMQNTNDVETARCTAGTLHNLS [CTNNB1]	3.57 ± 0.33	3.81 ± 0.32		
VSAYVDTTADLDRKLSFSHSDHSS [SPATS1]	3.83 ± 0.1	4.08 ± 0.24		
VSISIISSTSGGSGYGFRPSMVSG [KRT71]	2.84 ± 0.52	3.01 ± 0.93		
VSKTLPSTWSDPSVNISLDNLLPG [CLINT1]	3.35 ± 0.17	3.56 ± 0.16		
VSLGQKLVAAYVLGLLTMVFLRT [MOSPD3]			2.56 ± 0.71	2.07 ± 0.42

Sequence	protein stability index [1]	protein stability index [2]	protein stability index (treatment: DMSO, c terminus: native)	protein stability index (treatment: MLN4924 1 uM, 8 h, c terminus: native)
VTDCKHTEDVGVVCSDKRIPGFKF [LOXL2]	3.61 ± 0.35	3.77 ± 0.16		
VTDINDNAPKFQAENLDVKINENV [PCDHGA10]	5.22 ± 0.1	5.01 ± 0.37		
VTLIVDNTRFVVDPSIFTAQPNTM [BTBD10]	2.84 ± 0.51	3.2 ± 0.74		
VTLKYEIKKLIYVHLVIWLLLVAK [JAGN1]	2.33 ± 0.52	2.27 ± 0.3		
VVAEAQTRVSQLGLQVEGLRRRLE [LRRC45]	3.71 ± 0.4	3.82 ± 0.51		
VVAVDRDSGQNAWLSYRLLKASEP [PCDHGA10]	2.56 ± 0.17	2.6 ± 0.31		
VVKVISTIPATLLVDHVGSKTFLC [SLC2A12]	2.95 ± 0.43	2.75 ± 0.37		
VVPSYIPLVKKHCDDSFTPQEKLW [CPOX]	2.93 ± 0.15	2.98 ± 0.35		
VVVKLLHPPSHWPLIKATVGLIRN [CTNNB1]	2.48 ± 0.66	2.51 ± 0.64		
VWTNDQVVHWVQSIGLRDYAGNLH [PPFIA4]	2.16 ± 0.53	2.11 ± 0.29		
VWWVSQFVKYLIRPQPWLEKEIEE [FUT8]	2.32 ± 0.46	2.035 ± 0.002		
VYRAELVGELNGYLRDSSPAPCAD [PWWP2B]	3.31 ± 0.21	3.52 ± 0.27		
VYRDLKPENILLDRDGHIKLTDFG [PRKX]	3.07 ± 0.28	3.54 ± 0.24		
VYSLEPRLCGGKGGFGSMLRALGA [SDE2]	2.24 ± 0.45	2.1 ± 0.081		
WDLRDQSVVRDLKGYPDGVKSIVV [TLE6]	2.63 ± 0.25	2.63 ± 0.077		
WKCKNARGQVGLVPKNYVVVLSDG [NCK2]	2.15 ± 0.26	2.31 ± 0.45		
WMWLSCSSFFQQFFHCYCPVGFGR [CRY1]	2.42 ± 0.2	2.4 ± 0.25		
WVTFQVLLYTSLPDFCHKFLPGYV [DHCR7]	3.4 ± 0.055	3.01 ± 0.91		
YADFERFSKVLEEAAAAEEGLREL [DAPK3]	2.46 ± 0.18			
YAIAGYDGNSLLSSIECYDPIIDS [KLHL12]	2.83 ± 0.48	3.01 ± 0.36		
YDGLDCQARQFRTFHHPTYGSCYT [SCNN1D]	2.54 ± 0.1	2.59 ± 0.18		
YESDSSNHCMLSPSSSGHLADSDT [C18orf25]	5.18 ± 0.33	5.28 ± 0.21		

Sequence	protein stability index [1]	protein stability index [2]	protein stability index (treatment: DMSO, c terminus: native)	protein stability index (treatment: MLN4924 1 uM, 8 h, c terminus: native)
YFTQTLLPGLAGPSGEMVKSTTSL [MLH1]		2.51 ± 0.21		
YHTSQSGDEMTSLSEYVSRMKETQ [HSP90AB1]	3.9 ± 0.25	3.96 ± 0.23		
YIAAFLHVLLPVALEFQPQLVLVA [HDAC6]	3.25 ± 0.84	3.14 ± 0.41		
YKDTCHELDELQLCKNCFYLSNAR [ZMYND11]	2.66 ± 0.31	3.02 ± 0.25		
YKGLFEVNPWKREVKLLLSSETPI [APMAP]	2.71 ± 0.3	2.14 ± 0.18		
YKVRHVHWKTWLAIKCSPSLHVDD [RIPK4]	2.16 ± 0.34	1.98 ± 0.44		
YLEVAKHFKPHGFSSDKAKAGSSE [ATF4]	3.97 ± 0.092	4.24 ± 0.33		
YLGSAYHASKCEFLANLHITALLN [DUSP5]	2.58 ± 0.69	2.61 ± 0.47		
YLLDRAVDSFETQRNGLVFIYDMC [PTPN9]	2.36 ± 0.47	2.29 ± 0.29		
YLTIILILISFTCRFLLNSRVTDA [TMEM120A]	3.19 ± 0.26	3.12 ± 0.24		
YLTNCEKLSAKSLQTLRSFSHTLV [ZER1]	2.3 ± 0.16	2.24 ± 0.38		
YMVRRYFNKPSRVPAPEAFRDPIW [MYORG]	2.27 ± 0.25	2.12 ± 0.39		
YNIRTDSWTTVTSMTTPRCYVGAT [KLHL12]	2.44 ± 0.23	2.67 ± 0.33		
YNSFHKLRDRAERIASRAIDNAAD [SNX8]	3.98 ± 0.43	4.14 ± 0.38		
YQGLPVRCVKSIIRQVLQGLDYLH [SRPK2]	2.45 ± 0.27	2.59 ± 0.41		
YQYFVCPVEYRSDVNSFVTECEPS [CDS1]	2.35 ± 0.26	2.36 ± 0.37		
YRGTLKRQPAFDTFDGSLFAVFPS [ETS2]	2.31 ± 0.42	2.08 ± 0.14		
YSSEDSTLASVPPAATFGADDLVL [ELF3]	4.5 ± 0.13	4.48 ± 0.22		
YTPTAEDSAQMQNGGPSTPPASPP [ANKRD40]	5.27 ± 0.22	5.16 ± 0.2		
YVALFPCNECAKLIIQAGIKEVIF [DCTD]	2.73 ± 1.2	2.96 ± 0.54		
YVDIQGLTASTMEILLDFVYTETV [KLHL12]	3.564 ± 0.008	3.1 ± 1.2		
YYIPLVELVPHPETAPTTVDRTHA [CRYL1]	3.06 ± 0.28	3.1 ± 0.26		
